Laboratory results as given in article PMC12399007.

What was measured:
[1] = molecular target: F-actin (rabbit skeletal muscle actin, polymerized) (rabbit) (UniProt P68135); assay: co-sedimentation; high-speed centrifugation (HSC, 1 h, 40,000 rpm, 20 °C); 3.0 µM F-actin pre-incubated with 0.3 µM fascin for 20 min, titrated with Tpm2 isoforms 0-3.0 µM; 5 mM Tris, 100 mM NaCl, 2 mM MgCl2, 1 mM DTT, pH 7.5; Hill fit, apparent Kapp; fascin band in the pellets also quantified
[2] = molecular target: F-actin saturated with Tpm2.1 (rabbit | human) (UniProt P68135); assay: co-sedimentation; high-speed centrifugation (HSC); 3.0 µM F-actin, alone or pre-incubated 15 min with 2.0 µM Tpm2 isoform, incubated with fascin 0-1.1 µM for 1 h at RT; 5 mM Tris-HCl, 100 mM NaCl, 2 mM MgCl2, 1 mM DTT, pH 7.5; Hill fit, apparent Kapp
[3] = molecular target: F-actin (rabbit skeletal muscle actin, polymerized) (rabbit) (UniProt P68135); assay: as above

Substance “Tpm2.4, recombinant N-terminally acetylated human tropomyosin isoform encoded by TPM2 (natural protein)” has a percent reduction of fascin bound to F-actin [1] of 30%.

“recombinant mouse fascin-1 with GPLGS N-terminal extension (GST tag cleaved) (natural protein)” showed a Ka [2] of 8e+06 M⁻¹ and a Ka [3] of 1.15e+07 M⁻¹.
